Measurements published in patent US20240043529A1, “METHODS AND COMPOSITIONS RELATED TO BCL2 AND BIM HETERODIMER ANTIBODIES” (Eutropics Pharmaceuticals, Inc., priority 2020, published 2024).

Legend:
[1] = target: T1, GST_Bc1xL (Bc1xL monomer) (human, UniProt Q07817 1-209); experiment: ELISA, serially diluted hybridoma supernatant on glutathione plates
T1 construct: also called BclxL monomer; not shown: GST (glutathione S-transferase) fused at the N-terminus
Procedure: (§1) This class of heterodimer specific Bc12:Bim reactive monoclonal antibodies are otherwise known as “HSB2B”. […] As controls, reactivity with Bc1xL:Bim, Bc12 and Bc1xL monomers, and bovine serum albumin (BSA) were also screened against. To adhere the Bc1xL and Bc12 to the plates, each was expressed as a recombinant fusion protein with GST at the N-terminus (i.e. GST_Bc12 and GST_Bc1xL). Once adhered to the plate, incubations were either performed with a Bim peptide (which fits into the BH3-binding pocket of Bc12 family members), or PBS (thus retaining the monomeric confirmation). Hybridomas supernatants were subsequently incubated with the coated antigens and detected with HRP conjugated anti-mouse IgG. The reaction was developed with TMB substrate and stopped with sulphuric acid. Gluathione plate wells were scanned using a wavelength filter with an optical density of 450 nanometres (OD₄₅₀).

[2] = target: T2, bovine serum albumin (BSA) (bovine, UniProt P02769 25-607); experiment: as above
T2 construct: Control antigen
T2 sequence (P02769 25-607 limits assumed): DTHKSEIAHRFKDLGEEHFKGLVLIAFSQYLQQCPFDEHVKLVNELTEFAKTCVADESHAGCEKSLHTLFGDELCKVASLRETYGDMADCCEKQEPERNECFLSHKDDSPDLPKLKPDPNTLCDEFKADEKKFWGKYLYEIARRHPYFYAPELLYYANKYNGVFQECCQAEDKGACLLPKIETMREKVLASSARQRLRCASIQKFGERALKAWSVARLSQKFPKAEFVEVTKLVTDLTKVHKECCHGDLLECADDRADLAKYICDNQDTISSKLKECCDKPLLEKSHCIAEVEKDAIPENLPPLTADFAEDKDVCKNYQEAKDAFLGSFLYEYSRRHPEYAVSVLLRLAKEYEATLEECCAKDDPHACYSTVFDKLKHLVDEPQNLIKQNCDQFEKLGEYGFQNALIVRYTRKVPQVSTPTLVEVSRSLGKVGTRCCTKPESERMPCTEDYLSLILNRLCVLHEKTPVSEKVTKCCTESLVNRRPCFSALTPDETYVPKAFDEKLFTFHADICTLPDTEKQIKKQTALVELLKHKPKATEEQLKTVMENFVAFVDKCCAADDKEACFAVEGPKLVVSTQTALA
Procedure: as §1

[3] = target: Bc12:Bim heterodimeric complex (Homo sapiens, UniProt P10415); experiment: ELISA of hybridoma supernatants on glutathione plates coated with GST_Bc12 complexed with Bim peptide; assay type: binding; conditions: for antigen reactivity of hybridoma supernatants (OD450): FIG. 1, serially diluted supernatants, controls Bc1xL:Bim, Bc12 and Bc1xL monomers, BSA; for hybridoma supernatant reactivity among a more exhaustive range of antigens: FIG. 2, antigens include Mcl1 monomer and Mc11:Bim heterodimeric forms
Bc12:Bim heterodimeric complex, sequence (P10415 whole entry, the tested form may be a part): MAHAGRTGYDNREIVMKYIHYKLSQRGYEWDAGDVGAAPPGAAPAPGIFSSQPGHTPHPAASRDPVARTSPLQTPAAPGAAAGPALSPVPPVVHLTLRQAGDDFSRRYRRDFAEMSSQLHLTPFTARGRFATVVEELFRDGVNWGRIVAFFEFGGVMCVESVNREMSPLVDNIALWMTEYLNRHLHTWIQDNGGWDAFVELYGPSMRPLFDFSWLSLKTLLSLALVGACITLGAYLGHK
Bc12:Bim heterodimeric complex, sequence (O43521 142-161 partner limits assumed): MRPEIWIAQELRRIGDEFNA
Procedure: This class of heterodimer specific Bc12:Bim reactive monoclonal antibodies are otherwise known as “HSB2B”. […] As controls, reactivity with Bc1xL:Bim, Bc12 and Bc1xL monomers, and bovine serum albumin (BSA) were also screened against. To adhere the Bc1xL and Bc12 to the plates, each was expressed as a recombinant fusion protein with GST at the N-terminus (i.e. GST_Bc12 and GST_Bc1xL). Once adhered to the plate, incubations were either performed with a Bim peptide (which fits into the BH3-binding pocket of Bc12 family members), or PBS (thus retaining the monomeric confirmation). Hybridomas supernatants were subsequently incubated with the coated antigens and detected with HRP conjugated anti-mouse IgG. The reaction was developed with TMB substrate and stopped with sulphuric acid. Gluathione plate wells were scanned using a wavelength filter with an optical density of 450 nanometres (OD450).
As a GST fusion protein (GST_Mc11), HSB2B hybridoma supernatant reactivity was tested against the Mc11 monomeric form, or the heterodimeric forms (created by, either, incubation of Bim peptide (as for FIG. 1), or by covalently linking the Bim peptide to the GST_Mc11). As for FIG. 1, the HSB2B mAbs show specific reactivity with the epitopes induced following the complexing of Bc12 with Bim.

[4] = target: ABT199 in a heterodimer with Bc12 (Homo sapiens, UniProt P10415); experiment: ELISA reactivity with different Bc12 and Bc1_XL heterodimers; assay type: binding; conditions: FIG. 8; signal relative to Bc12:BIM heterodimer
ABT199 in a heterodimer with Bc12, sequence (P10415 whole entry, one chain of several): as the sequence (P10415 whole entry, the tested form may be a part) above
Description: (§2) All levels of reactivity are tabulated as percentage magnitudes of signal relative to those yielded with the Bc12:BIM heterodimer. […] 28A9 has low ABT199 cross-reactivity.

[5] = target: Bc12:BIM heterodimer (Homo sapiens, UniProt P10415); experiment: as above; assay type: binding; conditions: FIG. 8
Bc12:BIM heterodimer, sequence (P10415 whole entry): as the sequence (P10415 whole entry, the tested form may be a part) above
Bc12:BIM heterodimer, sequence (O43521 whole entry partner): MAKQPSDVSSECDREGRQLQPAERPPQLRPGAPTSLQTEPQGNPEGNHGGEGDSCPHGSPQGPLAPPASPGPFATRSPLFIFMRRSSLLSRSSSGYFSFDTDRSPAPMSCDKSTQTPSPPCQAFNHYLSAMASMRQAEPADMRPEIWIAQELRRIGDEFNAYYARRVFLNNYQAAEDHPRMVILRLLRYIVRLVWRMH
Description: as §2

[6] = target: T3, GST_Bc12 (Bc12 monomer) (human, UniProt P10415 1-218, limits assumed); experiment: ELISA, serially diluted hybridoma supernatant on glutathione plates
T3 construct: also called Bcl2 monomer; not shown: GST (glutathione S-transferase) fused at the N-terminus
T3 sequence (P10415 1-218 limits assumed): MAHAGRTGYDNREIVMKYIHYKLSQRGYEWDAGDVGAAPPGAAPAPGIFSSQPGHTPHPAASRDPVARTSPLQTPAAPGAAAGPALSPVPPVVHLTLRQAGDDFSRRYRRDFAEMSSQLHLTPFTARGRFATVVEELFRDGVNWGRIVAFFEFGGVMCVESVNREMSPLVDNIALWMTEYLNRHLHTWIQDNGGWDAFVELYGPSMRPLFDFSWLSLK
Procedure: as §1

[7] = tested on: small cell lung cancer tissue; experiment: IHC on FFPE small cell lung cancer tissue; conditions: for cytoplasmic staining level (Mean Cytoplasmic OD) of tumor cells versus negative control: FIG. 4 (ii), four biopsy areas; for cytoplasmic staining level (Mean Cytoplasmic OD) of tumor cells versus negative control / cytoplasmic staining level of individual cells versus negative control: Mann Whitney ****p<0.001; for reactivity by IHC with small cell lung cancer tissue: FIG. 4, FFPE secondary (colon) tumor biopsy, anti-mouse IgG HRP, DAB; for cytoplasmic staining level of individual cells versus negative control: FIG. 5 (ii), three biopsy areas combined
Description: Serial sections of a FFPE secondary (colon) tumor biopsy were stained with the HSB2B clones or, as a negative control, no primary antibody (“neg control”). Antibody binding was detected with anti-mouse IgG HRP and developed using a DAB substrate to yield a brown stain. Nuclei were counterstained blue with Hematoxylin. Four corresponding biopsy areas (A-D) were imaged per biopsy for analysis. FIG. 4 (i) is a panel of images showing the magnitude of staining with each HSB2B mAb for one of the four biopsy areas acquired for each stained biopsy. […] Cellular architecture (middle row) was then defined using HALO image analysis software (left hand color key, TIL=tumor infiltrating lymphocytes), most importantly to define the location of the tumor cells. […] (ii) Dot plot/bar chart showing the cytoplasmic staining levels (Mean Cytoplasmic OD) for each of the tumor cells for the four different biopsy areas. The dots represent cytoplasmic staining intensities for individual cells. Medians and interquartile ranges are plotted. (Mann Whitney) statistical comparisons of staining intensity were performed between cells from HSB2B stained tissue and negative (neg) control tissue for each of the four areas of biopsy. ****p<0.001.
The present anti-BC12/BIM antibodies are labelled “HSB2B” and a clone number (see Table A); “HSBXB” is an antibody against Bc1-x1/Bim and “HSMCB” is an antibody against MCL-1/BIM. […] FIG. 5 (ii) is cytoplasmic staining levels of individual cells from three different biopsy areas were combined and plotted as dot/bar graphs. The dots represent cytoplasmic staining intensities for individual cells. Medians and interquartile ranges are plotted. (Mann Whitney) statistical comparisons of staining intensity were performed between cells from HSA stained tissue and negative (neg) control tissue. **** p<0.001. […] The acquisition of data following staining with different HSA classes is planned to be of clinical utility to determine the relative dependencies of different cancers on different Bc12 family members.

[8] = tested on: breast cancer tissue; experiment: IHC on FFPE breast cancer tissue; conditions: FIG. 6; biopsies of two breast cancer patients; three biopsy areas combined
Description: The present anti-BC12/BINI antibodies are labelled “HSB2B” and a clone number (see Table A); “HSBXB” is an antibody against Bc1-x1/Bim and “HSMCB” is an antibody against MCL-1/BIM. Using an analogous staining method to that described in FIG. 5, serial sections of two different patients' breast cancer biopsies (“Breast Cancer Patient 1 & 2”) were stained at the same time, under the identical conditions for relative reactivity with HSB2B mAbs 2H3 and 10C10, HSMCB and HSBXB. Cytoplasmic staining levels of individual cells from three different biopsy areas for each patient biopsy were combined and plotted as dot/bar graphs. […] The acquisition of data following staining with different HSA classes is planned to be of clinical utility to determine the relative dependencies of different cancers on different Bc12 family members.

[9] = target: Bc12:BAX heterodimers (Homo sapiens, UniProt P10415); experiment: ELISA reactivity with different Bc12 and Bc1_XL heterodimers; assay type: binding; conditions: FIG. 8; signal relative to Bc12:BIM heterodimer
Bc12:BAX heterodimers, sequence (P10415 whole entry): as the sequence (P10415 whole entry, the tested form may be a part) above
Bc12:BAX heterodimers, sequence (Q07812 whole entry partner): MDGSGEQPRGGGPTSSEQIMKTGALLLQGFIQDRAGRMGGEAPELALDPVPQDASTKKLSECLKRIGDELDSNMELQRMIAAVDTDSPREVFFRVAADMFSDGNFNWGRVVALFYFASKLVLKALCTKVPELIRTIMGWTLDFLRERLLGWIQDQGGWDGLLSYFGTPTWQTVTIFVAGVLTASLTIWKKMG
Description: as §2

T1 sequence (Q07817 1-209): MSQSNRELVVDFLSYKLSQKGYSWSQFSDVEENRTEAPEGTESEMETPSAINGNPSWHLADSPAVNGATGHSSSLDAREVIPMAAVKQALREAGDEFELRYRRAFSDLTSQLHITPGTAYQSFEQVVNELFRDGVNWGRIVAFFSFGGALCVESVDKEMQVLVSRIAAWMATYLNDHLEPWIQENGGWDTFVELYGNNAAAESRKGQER

Molecule	binding result [1]	binding result [2]	antigen reactivity of hybridoma supernatants (OD450) [3]	binding result [6]	hybridoma supernatant reactivity among a more exhaustive range of antigens [3]	cytoplasmic staining level (Mean Cytoplasmic OD) of tumor cells versus negative control [7]	reactivity by IHC with small cell lung cancer tissue [7]	cytoplasmic staining level of individual cells versus negative control [7]	cytoplasmic staining level of individual cells versus negative control [8]	cross-reactivity with Bc12:BAX heterodimer [9]	further results
HSB2B clone 28A9D11 (antibody, V domains shown, Mouse IgG, tested as hybridoma supernatant) VH: DVQLQESGPGLVKPSQSLSLTCSVTGYSITSGYYWNWIRQFPGNKLEWMGYISYDGSNNYNPSLKNRISITRDTSKNQFFLKLNSVTTEDTATYYCARDGTTVVATLAYWGQGTLVTVSA VL: QIVLTQSPAIMSASPGEKVTISCSASSSVSYMYWYQQKPGSSPKPWIYRTSNLASGVPARFSGSGSGTSYSLTISSMEAEDAATYYCQQYHSYPPTFGAGTKLELK	no binding	no binding									
28A9: mouse IgG monoclonal antibody specific for the Bc12:Bim heterodimer; Hv SEQ ID NO: 17, Lv SEQ ID NO: 21 (antibody, V domains shown) VH: DVQLQESGPGLVKPSQSLSLTCSVTGYSITSGYYWNWIRQFPGNKLEWMGYISYDGSNNYNPSLKNRISITRDTSKNQFFLKLNSVTTEDTATYYCARDGTTVVATLAYWGQGTLVTVSA VL: QIVLTQSPAIMSASPGEKVTISCSASSSVSYMYWYQQKPGSSPKPWIYRTSNLASGVPARFSGSGSGTSYSLTISSMEAEDAATYYCQQYHSYPPTFGAGTKLELK			specific for the Bc12:Bim heterodimeric complex								ABT199 cross-reactivity [4]: low; physiological heterodimer reactivity (selectivity) [5]: restricted to Bc12:BIM
HSB2B clone 10C10F7 (antibody, V domains shown, Mouse IgG, tested as hybridoma supernatant; also called HSB2B mAb 10C10) VH: QVQLQQPGAELVKPGASVKLSCKASGYTFTSYWMHWVKQRPGRGLEWIGRIDPNSGGTKSNEKFNNKATLTVDKSSSTAYMQLSSLTSEDSAVYYCARWWDYDYFDYWGQGTTLTVSS VL: DIVMTQSPSSLTVTAGEKVTMSCKSSQSLLNSGNQKNYLTWYQQKPGQPPKLLIYWASTRESGVPDRFTGSGSGTDFTLTISNVQAEDLAVYYCQNDYNYPLTFGAGTKLELK	no binding	no binding		no binding							
10C10: mouse IgG monoclonal antibody specific for the Bc12:Bim heterodimer; Hv SEQ ID NO: 1, Lv SEQ ID NO: 5 (antibody, V domains shown) VH: QVQLQQPGAELVKPGASVKLSCKASGYTFTSYWMHWVKQRPGRGLEWIGRIDPNSGGTKSNEKFNNKATLTVDKSSSTAYMQLSSLTSEDSAVYYCARWWDYDYFDYWGQGTTLTVSS VL: DIVMTQSPSSLTVTAGEKVTMSCKSSQSLLNSGNQKNYLTWYQQKPGQPPKLLIYWASTRESGVPDRFTGSGSGTDFTLTISNVQAEDLAVYYCQNDYNYPLTFGAGTKLELK			specific for the Bc12:Bim heterodimeric complex		specific reactivity for the Bc12:Bim complex	higher level of cytoplasmic stain	can react with small cell lung cancer tissue	higher level of staining	higher level of staining	cross-reactivity between Bc12:BIM and Bc12:BAX heterodimers	
2H3: mouse IgG monoclonal antibody specific for the Bc12:Bim heterodimer; Hv SEQ ID NO: 25, Lv SEQ ID NO: 29 (antibody, V domains shown) VH: QVQLQQPGAELVKPGTSVKLSCQASGYTFASYWMHWVKQRPGRGLEWIGRIDPNSGGTKYNEKFKSKVTLTVDKPSSAAYMQLSSLTSEDSAVYYCARWWDYDYFDYWGQGTTLTVSS VL: DIVMTQSPSSLTVTAGEKVTMSCKSSQSLLNSGNQKRYLTWYQQKPGQPPKLLIYWASTRESGVPDRFTGSGSGTDFTLTISSVQAEDLAVYYCQNDYNYPLTFGSGTKLELK			specific for the Bc12:Bim heterodimeric complex		specific reactivity for the Bc12:Bim complex	higher level of cytoplasmic stain	can react with small cell lung cancer tissue	higher level of staining	higher level of staining	cross-reactivity between Bc12:BIM and Bc12:BAX heterodimers	
HSB2B clone 2H3G7 (antibody, V domains shown, Mouse IgG, tested as hybridoma supernatant; also called HSB2B mAb 2H3) VH: QVQLQQPGAELVKPGTSVKLSCQASGYTFASYWMHWVKQRPGRGLEWIGRIDPNSGGTKYNEKFKSKVTLTVDKPSSAAYMQLSSLTSEDSAVYYCARWWDYDYFDYWGQGTTLTVSS VL: DIVMTQSPSSLTVTAGEKVTMSCKSSQSLLNSGNQKRYLTWYQQKPGQPPKLLIYWASTRESGVPDRFTGSGSGTDFTLTISSVQAEDLAVYYCQNDYNYPLTFGSGTKLELK	no binding	no binding		no binding							
